# Test results published in patent US20140050719A1 (GlaxoSmithKline, published 2014).
# Target: T1, human Aβ peptide (1-40) biotinylated at the C terminus (human, UniProt P05067 672-711, biotinylated at the C terminus)
# T1 construct: domain: beta-amyloid peptide (1-40); the peptide starts at the BACE-1 cleavage site (DAEFRHD...); also called beta-amyloid 1-40 peptide (biotinylated at the C-terminus); streptavidin-captured beta-amyloid (1-40)
# Experiment: Biacore SPR, similar to Method A(i); streptavidin-captured beta-amyloid (1-40), Fab in solution
# T1 sequence (P05067 672-711 limits assumed): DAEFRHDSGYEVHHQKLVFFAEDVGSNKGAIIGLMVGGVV
binder,measurement,value
"Fab fragments of H2L1, obtained by papain digestion (Fab, V domains shown, also called H2L1 Fab) VH: EVQLVESGGGLVQPGGSLRLSCAVSGFTFSDNGMAWVRQAPGKGLEWVSFISNLAYSIDYADTVTGRFTISRDNAKNSLYLQMNSLRAEDTAVYYCVSGTWFAYWGQGTLVTVSS VL: DIVMTQSPLSLPVTPGEPASISCRVSQSLLHSNGYTYLHWYLQKPGQSPQLLIYKVSNRFSGVPDRFSGSGSGTDFTLKISRVEAEDVGVYYCSQTRHVPYTFGGGTKVEIKR",Kd,~2.4 nM
